Measured values from patent publication US20190062457A1 (BROWN UNIVERSITY, published 2019).

Biological target: T1, human Chi3l1 (chitinase 3-like-1) (human, UniProt P36222 22-383)
T1 construct: also called YKL-40; recombinant (r) human Chi3l1
Assay: Western blot / ELISA detection of Chi3l1, denaturing and non-denaturing

T1 sequence (P36222 22-383 limits assumed): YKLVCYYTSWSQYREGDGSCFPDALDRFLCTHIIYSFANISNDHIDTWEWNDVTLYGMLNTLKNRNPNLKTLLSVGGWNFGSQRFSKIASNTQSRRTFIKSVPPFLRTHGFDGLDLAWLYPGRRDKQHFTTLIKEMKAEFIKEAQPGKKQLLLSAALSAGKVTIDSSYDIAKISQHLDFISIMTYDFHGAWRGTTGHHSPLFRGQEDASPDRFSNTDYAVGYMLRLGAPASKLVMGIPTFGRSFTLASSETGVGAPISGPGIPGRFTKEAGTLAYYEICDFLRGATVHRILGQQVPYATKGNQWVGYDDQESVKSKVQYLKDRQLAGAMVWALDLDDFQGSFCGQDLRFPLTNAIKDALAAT

- binding result: binds
B1: FRG monoclonal antibody (anti-Chi3l1) (antibody, IgG2b, V domains shown)
VH: QIQLVQSGPELKKPGETVKISCKASGYTFTNYGMNWVKQAPGKGLKWMGWINTYTGEPTYADDFKGRFAFSLETSASTAYLQINNLRNEDMSTYFCARLGYGKFYVMDYWGQGTSVTVSS
VL: DVVMTQTPLSLPVSLGDQASISCRSSQSLVHSNGNTYLHWYLQKPGQSPKLLIYKVSNRFSGVPDRFSGSGSGTDFTLKISRVEAEDLGVYFCSQSTHVTWTFGGGTKLEIK
notes: The antibody is described as an IgG2b Kappa monoclonal; also called FRG mAb; FRG antibody
